The source of these data is patent US20050100551A1.

Assay [1] has as its target Herceptin. Description: inhibition ELISA: herceptin preincubated with KLH alone, binding to SKBR3 membranes (Her-2/neu). (In an ELISA, binding on a coated surface is turned into a signal by an enzyme label.)
Assay [2] concerns the target Herceptin. Description: inhibition ELISA: herceptin preincubated with wild-type phage, binding to SKBR3 membranes (Her-2/neu).

KLH (from UniProt Q10583 17-3414): the Percent inhibition in comparison to uninhibited herceptin control with Herceptin [1] was 0%.
For the substance Wild-type phage, the Percent inhibition in comparison to uninhibited herceptin control with Herceptin [2] is 3%.
